Reference: paper PMC4701059 (Molecular microbiology, 2015)

T1: ComA;Rap60 (Bacillus subtilis (genomic DNA; strain …, UniProt P14204;Q45456 2-214;2-375, |)
T1 sequence 1: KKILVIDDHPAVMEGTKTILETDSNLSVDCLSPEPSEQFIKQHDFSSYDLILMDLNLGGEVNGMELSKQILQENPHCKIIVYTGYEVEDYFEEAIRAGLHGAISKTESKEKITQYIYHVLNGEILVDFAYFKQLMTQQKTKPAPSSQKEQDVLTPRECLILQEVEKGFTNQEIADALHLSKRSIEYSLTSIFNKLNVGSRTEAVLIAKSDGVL
T1 sequence 2: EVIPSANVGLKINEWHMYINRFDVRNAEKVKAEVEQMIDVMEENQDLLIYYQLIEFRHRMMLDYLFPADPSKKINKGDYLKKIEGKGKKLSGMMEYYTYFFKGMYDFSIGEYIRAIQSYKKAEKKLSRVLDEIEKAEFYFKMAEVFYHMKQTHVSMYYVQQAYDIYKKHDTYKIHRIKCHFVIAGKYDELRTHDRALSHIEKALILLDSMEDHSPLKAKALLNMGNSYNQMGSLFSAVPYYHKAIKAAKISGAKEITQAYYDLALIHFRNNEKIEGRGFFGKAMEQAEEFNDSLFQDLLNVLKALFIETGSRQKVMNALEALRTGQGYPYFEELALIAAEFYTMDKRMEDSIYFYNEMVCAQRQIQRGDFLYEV

T2: ComA;Rap60(R26A) (Bacillus subtilis (genomic DNA; strain …, UniProt P14204;Q45456 2-214;2-375, |R26A)
T2 sequence 1: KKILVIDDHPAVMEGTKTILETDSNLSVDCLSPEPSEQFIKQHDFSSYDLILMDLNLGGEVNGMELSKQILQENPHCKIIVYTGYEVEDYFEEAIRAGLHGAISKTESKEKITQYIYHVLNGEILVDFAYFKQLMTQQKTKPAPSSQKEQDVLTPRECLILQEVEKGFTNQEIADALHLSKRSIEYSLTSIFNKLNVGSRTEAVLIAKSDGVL
T2 sequence 2: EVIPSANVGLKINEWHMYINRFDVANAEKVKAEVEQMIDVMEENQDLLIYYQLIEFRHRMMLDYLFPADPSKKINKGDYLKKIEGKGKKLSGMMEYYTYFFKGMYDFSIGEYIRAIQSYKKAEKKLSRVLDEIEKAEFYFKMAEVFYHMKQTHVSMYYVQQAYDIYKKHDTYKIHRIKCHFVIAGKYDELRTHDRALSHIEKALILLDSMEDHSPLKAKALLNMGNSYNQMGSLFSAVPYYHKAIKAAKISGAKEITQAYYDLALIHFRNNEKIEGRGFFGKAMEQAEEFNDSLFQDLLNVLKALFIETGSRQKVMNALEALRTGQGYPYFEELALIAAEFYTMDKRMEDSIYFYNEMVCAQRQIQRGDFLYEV

T3: ComA;Rap60(R26P) (Bacillus subtilis (genomic DNA; strain …, UniProt P14204;Q45456 2-214;2-375, |R26P)
T3 sequence 1: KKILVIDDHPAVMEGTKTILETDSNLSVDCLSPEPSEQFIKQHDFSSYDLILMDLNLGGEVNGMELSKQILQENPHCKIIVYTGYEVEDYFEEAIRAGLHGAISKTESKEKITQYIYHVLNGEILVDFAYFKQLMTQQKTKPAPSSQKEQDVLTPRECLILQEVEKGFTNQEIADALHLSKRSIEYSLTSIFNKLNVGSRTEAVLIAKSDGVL
T3 sequence 2: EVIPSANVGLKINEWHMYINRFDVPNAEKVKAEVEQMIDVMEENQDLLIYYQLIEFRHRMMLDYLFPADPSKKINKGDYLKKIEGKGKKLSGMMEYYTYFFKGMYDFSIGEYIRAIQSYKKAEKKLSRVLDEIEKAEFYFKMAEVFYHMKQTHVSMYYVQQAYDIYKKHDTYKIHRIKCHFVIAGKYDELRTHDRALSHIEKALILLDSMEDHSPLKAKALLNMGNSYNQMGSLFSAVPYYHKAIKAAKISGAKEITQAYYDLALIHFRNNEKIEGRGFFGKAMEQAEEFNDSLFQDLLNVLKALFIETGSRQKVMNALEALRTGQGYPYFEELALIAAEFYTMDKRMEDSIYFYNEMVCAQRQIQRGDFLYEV

T4: ComA (Bacillus subtilis (genomic DNA; strain …, UniProt P14204 2-214)
T4 sequence: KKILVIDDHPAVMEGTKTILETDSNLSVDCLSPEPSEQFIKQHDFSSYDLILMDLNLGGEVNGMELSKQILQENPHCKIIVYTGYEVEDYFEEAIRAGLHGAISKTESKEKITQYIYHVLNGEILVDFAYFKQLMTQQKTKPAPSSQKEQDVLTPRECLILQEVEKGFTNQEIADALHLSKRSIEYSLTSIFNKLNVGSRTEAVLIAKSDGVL

T5: Rap60 (Bacillus subtilis plasmid pTA1060, UniProt Q45456 2-375)
T5 sequence: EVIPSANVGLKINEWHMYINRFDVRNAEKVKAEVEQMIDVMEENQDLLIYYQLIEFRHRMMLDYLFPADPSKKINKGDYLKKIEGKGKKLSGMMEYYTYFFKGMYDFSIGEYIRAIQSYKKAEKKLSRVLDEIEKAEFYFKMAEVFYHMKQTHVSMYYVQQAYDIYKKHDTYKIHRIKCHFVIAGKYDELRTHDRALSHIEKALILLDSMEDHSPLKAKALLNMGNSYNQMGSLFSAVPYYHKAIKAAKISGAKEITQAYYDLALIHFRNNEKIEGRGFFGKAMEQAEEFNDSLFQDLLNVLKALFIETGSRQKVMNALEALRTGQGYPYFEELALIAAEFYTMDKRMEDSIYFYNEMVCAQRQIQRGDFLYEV

T6: ComA;Rap60(N27A) (Bacillus subtilis (genomic DNA; strain …, UniProt P14204;Q45456 2-214;2-375, |N27A)
T6 sequence 1: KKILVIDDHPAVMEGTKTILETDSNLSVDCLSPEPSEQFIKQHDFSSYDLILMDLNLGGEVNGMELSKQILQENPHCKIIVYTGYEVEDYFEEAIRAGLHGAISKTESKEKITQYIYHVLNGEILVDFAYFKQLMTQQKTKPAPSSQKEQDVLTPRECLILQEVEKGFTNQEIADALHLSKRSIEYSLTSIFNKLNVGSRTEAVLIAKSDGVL
T6 sequence 2: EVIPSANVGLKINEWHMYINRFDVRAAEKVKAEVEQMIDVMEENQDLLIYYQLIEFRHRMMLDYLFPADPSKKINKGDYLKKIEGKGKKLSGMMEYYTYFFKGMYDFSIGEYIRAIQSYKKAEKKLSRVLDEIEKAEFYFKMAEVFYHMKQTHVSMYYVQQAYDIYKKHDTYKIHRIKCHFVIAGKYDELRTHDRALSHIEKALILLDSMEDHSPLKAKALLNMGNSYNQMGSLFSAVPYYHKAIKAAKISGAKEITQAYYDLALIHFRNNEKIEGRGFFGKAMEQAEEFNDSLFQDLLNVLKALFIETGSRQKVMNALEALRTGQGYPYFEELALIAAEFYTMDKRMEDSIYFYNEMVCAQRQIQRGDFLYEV

B1: minimal consensus ComA binding site (dsDNA)
DNA 1: TCATTGCGGCATCCCGCAAGAAACTTTGCGGTC
DNA 2: GACCGCAAAGTTTCTTGCGGGATGCCGCAATGA

Experiments:
ComP(CD) (his6-ComP(CD)) = ComP(CD) (his6-ComP(CD)) (Bacillus subtilis, UniProt Q99027); test: autophosphorylation with γ-32P-ATP, SDS-PAGE, phosphorimaging; assay type: biochemical; conditions: 0.5 mM ATP; 20 mM MgCl2, pH 8-8.5, 24°C; labelled compound
ComA;Rap60 = molecular target: T1, ComA;Rap60; test: EMSA
ComA;Rap60(R26A) = molecular target: T2, ComA;Rap60(R26A); test: EMSA
ComA;Rap60(R26P) = molecular target: T3, ComA;Rap60(R26P); test: EMSA
ComA = molecular target: T4, ComA; test: EMSA
Rap60 = molecular target: T5, Rap60; test: EMSA
ComA;Rap60(N27A) = molecular target: T6, ComA;Rap60(N27A); test: EMSA

Chain of ComP(CD) (his6-ComP(CD)) (Q99027 384-769): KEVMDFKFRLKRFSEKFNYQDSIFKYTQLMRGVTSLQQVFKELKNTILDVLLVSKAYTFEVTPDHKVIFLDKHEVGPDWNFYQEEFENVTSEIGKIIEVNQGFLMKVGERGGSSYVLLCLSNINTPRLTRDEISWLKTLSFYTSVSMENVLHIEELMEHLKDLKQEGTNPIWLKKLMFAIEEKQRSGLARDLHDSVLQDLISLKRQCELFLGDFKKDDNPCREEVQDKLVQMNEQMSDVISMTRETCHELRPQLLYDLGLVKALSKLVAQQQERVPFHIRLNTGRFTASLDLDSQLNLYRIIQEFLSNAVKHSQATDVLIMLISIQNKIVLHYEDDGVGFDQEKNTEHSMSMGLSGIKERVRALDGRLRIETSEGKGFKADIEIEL

| Molecule | autophosphorylation with γ-32P-ATP, SDS-PAGE, phosphorimaging (ComP(CD) (his6-ComP(CD))) | binding result (ComA;Rap60) | binding result (ComA;Rap60(R26A)) | binding result (ComA;Rap60(R26P)) | binding result (ComA) | binding result (Rap60) | binding result (ComA;Rap60(N27A)) |
| --- | --- | --- | --- | --- | --- | --- | --- |
| Nc1ncnc2c1ncn2[C@@H]1O[C@H](COP(=O)(O)OP(=O)(O)OP(=O)(O)O)[C@@H](O)[C@H]1O [ATP] | ComP autophosphorylation, ComP~P dephosphorylation, phosphotransfer from ComP to ComA | – | – | – | – | – | – |
| B1 | – | binds | binds | binds | binds | no binding | binds |
